According to US20240116985A1 (published 2024):
Starred links: 1 amine or outer side, 2 acyl side, 3 side chain; linkers in the order of their positions; H or OH if unused. Positions of bridges follow the written chain, without caps; N, C: chain ends. Non-standard residues stand in square brackets, D forms with d. Primed or numbered codes have the meaning given here. B5(16) = 2-amino-2-(pent-4-en-1-yl)hept-6-enoic acid = 2,2-bis(4-pentenyl)glycine (stitching residue), C=CCCCC(CCCC=C)(N[*:1])C(=O)[*:2]; B5(4) = 2,2-bis(4-pentenyl)glycine = 2-amino-2-(pent-4-en-1-yl)hept-6-enoic acid (stitching residue), C=CCCCC(CCCC=C)(N[*:1])C(=O)[*:2]; B5(5) = 2,2-bis(4-pentenyl)glycine, 2-amino-2-(pent-4-en-1-yl)hept-6-enoic acid (stitching residue), C=CCCCC(CCCC=C)(N[*:1])C(=O)[*:2]; PyrS(3) = (S)-1-((allyloxy)carbonyl)-3-aminopyrrolidine-3-carboxylic acid, stapling residue, C=CCOC(=O)N1CC[C@@](N[*:1])(C(=O)[*:2])C1; PyrS″ = (S)-1-((allyloxy)carbonyl)-3-aminopyrrolidine-3-carboxylic acid (stapling residue), C=CCOC(=O)N1CC[C@@](N[*:1])(C(=O)[*:2])C1; B5(21) = 2-amino-2-(pent-4-en-1-yl)hept-6-enoic acid, bis(4-pentenyl)glycine (stitching residue), C=CCCCC(CCCC=C)(N[*:1])C(=O)[*:2]; RdN = (R)-4-(((allyloxy)carbonyl)(methyl)amino)-2-amino-2-methylbutanoic acid, C=CCOC(=O)N(C)CC[C@@](C)(N[*:1])C(=O)[*:2]; PyrS = (S)-1-((allyloxy)carbonyl)-3-aminopyrrolidine-3-carboxylic acid, C=CCOC(=O)N1CC[C@@](N[*:1])(C(=O)[*:2])C1; 6F1NapA = 2-amino-3-(6-fluoronaphthalen-1-yl)propanoic acid, O=C([C@H](Cc1cccc2cc(F)ccc12)N[*:1])[*:2]; Trp(5-cPr) = 5-cyclopropyl-L-tryptophan (5CpW), O=C([C@H](Cc1c[nH]c2ccc(C3CC3)cc12)N[*:1])[*:2]; B5 = 2-amino-2-(pent-4-en-1-yl)hept-6-enoic acid, C=CCCCC(CCCC=C)(N[*:1])C(=O)[*:2]; Trp(5-CF3) = N[C@@H](Cc1c[nH]c2ccc(C(F)(F)F)cc12)C(=O)O; H2Trp = 2,3-dihydrotryptophan (indolin-3-yl alanine); Trp(5-OMe) = COc1ccc2[nH]cc(C[C@H](N)C(=O)O)c2c1; Phe(3-CF3) = N[C@@H](Cc1cccc(C(F)(F)F)c1)C(=O)O; Phe(4-CF3) = N[C@@H](Cc1ccc(C(F)(F)F)cc1)C(=O)O; Trp(5-F) = N[C@@H](Cc1c[nH]c2ccc(F)cc12)C(=O)O; S7 = C[C@@](CCCCCC=[*:3])(N[*:1])C(=O)[*:2]; Bip = N[C@@H](Cc1ccc(-c2ccccc2)cc1)C(=O)O; αAllylPro = C=CC[C@@]1(C(=O)O)CCCN1; R8 = C=CCCCCCC[C@@](C)(N)C(=O)O; S8 = C=CCCCCCC[C@](C)(N)C(=O)O; Nle = CCCC[C@H](N)C(=O)O; Aib = CC(C)(N)C(=O)O

B1: I-136 (peptide)
peptide: XDAXDEAAFVXFXQ
modifications: not fully specified; as printed: Ac-PL3-Asp-Ala-B5-Asp-Glu-Ala-Ala-Phe-Val-S8-Phe-aMeW-Gln-NH2; N-terminal acetyl, C-terminal amide; PL3(1), B5(4), S8(11), aMeW(13); staples PL3-B5 and B5-S8 by olefin metathesis
notes: stapled peptide
B2: I-137 (peptide)
peptide: XDAXDEAAFVXFXQ
modifications: not fully specified; as printed: Ac-PL3-Asp-Ala-B5-Asp-Glu-Ala-Ala-Phe-Val-S8-Phe-aMeW-Gln-NH2; N-terminal acetyl, C-terminal amide; PL3(1), B5(4), S8(11), aMeW(13); staples PL3-B5 and B5-S8 by olefin metathesis
notes: stapled peptide
B3: I-138 (peptide)
peptide: Ac-[αAllylPro]DA[B5(4)]D[Nle]AAFV[S8]FWQ-NH2
modifications: staple 1-4, 4-11; not fully specified; printed as Ac-PL3-Asp-Ala-B5-Asp-nLeu-Ala-Ala-Phe-Val-S8-Phe-Trp-Gln-NH2
notes: stapled peptide
B4: I-139 (peptide)
peptide: Ac-[αAllylPro]DA[B5(21)]D[Nle]AAFV[S8]FWQ-NH2
modifications: staple 1-4, 4-11; not fully specified; printed as Ac-PL3-Asp-Ala-B5-Asp-nLeu-Ala-Ala-Phe-Val-S8-Phe-Trp-Gln-NH2
notes: stapled peptide
B5: I-149 (peptide)
peptide: DIXDDAAFQXFWH
modifications: not fully specified; as printed: Ac-Asp-Ile-RdN-Asp-Asp-Ala-Ala-Phe-Gln-S7-Phe-Trp-His-NH2; N-terminal acetyl, C-terminal amide; RdN(3), S7(10); staple RdN-S7 by olefin metathesis
notes: stapled peptide
B6: I-150 (peptide)
peptide: DIXDDAAFQXFWH
modifications: not fully specified; as printed: Ac-Asp-Ile-RdN-Asp-Asp-Ala-Ala-Phe-Gln-S7-Phe-Trp-His-NH2; N-terminal acetyl, C-terminal amide; RdN(3), S7(10); staple RdN-S7 by olefin metathesis
notes: stapled peptide
B7: I-159 (peptide)
peptide: Ac-[Aib]DA[R8]DEAAFV[PyrS″]FW[Aib]-NH2
modifications: staple 4-11; not fully specified; printed as Ac-Aib-Asp-Ala-R8-Asp-Glu-Ala-Ala-Phe-Val-PyrS-Phe-Trp-Aib-NH2
notes: stapled peptide
B8: I-160 (peptide)
peptide: Ac-[Aib]DA[R8]DEAAFV[PyrS]FW[Aib]-NH2
modifications: staple 4-11; not fully specified; printed as Ac-Aib-Asp-Ala-R8-Asp-Glu-Ala-Ala-Phe-Val-PyrS-Phe-Trp-Aib-NH2
notes: stapled peptide
B9: I-161 (peptide)
peptide: Ac-FDA[R8]DDAAFV[PyrS]EWQ-NH2
modifications: staple 4-11; not fully specified; printed as Ac-Phe-Asp-Ala-R8-Asp-Asp-Ala-Ala-Phe-Val-PyrS-Glu-Trp-Gln-NH2
notes: stapled peptide
B10: I-162 (peptide)
peptide: Ac-FDA[R8]DDAAFV[PyrS″]EWQ-NH2
modifications: staple 4-11; not fully specified; printed as Ac-Phe-Asp-Ala-R8-Asp-Asp-Ala-Ala-Phe-Val-PyrS-Glu-Trp-Gln-NH2
notes: stapled peptide
B11: I-163 (peptide)
peptide: Ac-FDA[R8]DDAAFS[PyrS″]FWQ-NH2
modifications: staple 4-11; not fully specified; printed as Ac-Phe-Asp-Ala-R8-Asp-Asp-Ala-Ala-Phe-Ser-PyrS-Phe-Trp-Gln-NH2
notes: stapled peptide
B12: I-171 (peptide)
peptide: XDAXDEAAFVXFXQ
modifications: not fully specified; as printed: Ac-PL3-Asp-Ala-B5-Asp-Glu-Ala-Ala-Phe-Val-S8-Phe-5CpW-Gln-NH2; N-terminal acetyl, C-terminal amide; PL3(1), B5(4), S8(11), 5CpW(13); staples PL3-B5 and B5-S8 by olefin metathesis
notes: stapled peptide
B13: I-243 (peptide)
peptide: Ac-[αAllylPro]DA[B5(5)]DDAA[Phe(4-CF3)]V[S8]FWQ-NH2
modifications: staple 1-4, 4-11; not fully specified; printed as Ac-PL3-Asp-Ala-B5-Asp-Asp-Ala-Ala-4F3MeF-Val-S8-Phe-Trp-Gln-NH2
notes: Stapled peptide composition; also called Ac-PL3-Asp-Ala-B5-Asp-Asp-Ala-Ala-4F3MeF-Val-S8-Phe-Trp-Gln-NH2
B14: I-248 (peptide)
peptide: Ac-[αAllylPro]DA[B5(4)]DDAAFV[S8][Phe(3-CF3)]WQ-NH2
modifications: staple 1-4, 4-11
notes: Stapled peptide composition; also called Ac-PL3-Asp-Ala-B5-Asp-Asp-Ala-Ala-Phe-Val-S8-3F3MeF-Trp-Gln-NH2
B15: I-249 (peptide)
peptide: Ac-[αAllylPro]DA[B5(4)]DDAAFV[S8][Phe(3-CF3)]WQ-NH2
modifications: staple 1-4, 4-11
notes: as for B14
B16: I-252 (peptide)
peptide: Ac-[αAllylPro]DA[B5(4)]DDAAFV[S8][Phe(4-CF3)]WQ-NH2
modifications: staple 1-4, 4-11
notes: Stapled peptide composition; also called Ac-PL3-Asp-Ala-B5-Asp-Asp-Ala-Ala-Phe-Val-S8-4F3MeF-Trp-Gln-NH2
B17: I-253 (peptide)
peptide: Ac-[αAllylPro]DA[B5(4)]DDAAFV[S8][Phe(4-CF3)]WQ-NH2
modifications: staple 1-4, 4-11
notes: as for B16

What follows are binders tested against T1, full-length beta-Catenin (Uniprot ID P35222) (Homo sapiens (Human), UniProt P35222 2-781) (assay: AlphaScreen competition; full-length beta-catenin with biotin-TCF4(10-53) probe as competitor).
T1 construct: the AlphaScreen assay uses a Histidine (Nickel Chelate) detection kit, so a His tag is likely there; also called B-Catenin; bCat
T1 sequence: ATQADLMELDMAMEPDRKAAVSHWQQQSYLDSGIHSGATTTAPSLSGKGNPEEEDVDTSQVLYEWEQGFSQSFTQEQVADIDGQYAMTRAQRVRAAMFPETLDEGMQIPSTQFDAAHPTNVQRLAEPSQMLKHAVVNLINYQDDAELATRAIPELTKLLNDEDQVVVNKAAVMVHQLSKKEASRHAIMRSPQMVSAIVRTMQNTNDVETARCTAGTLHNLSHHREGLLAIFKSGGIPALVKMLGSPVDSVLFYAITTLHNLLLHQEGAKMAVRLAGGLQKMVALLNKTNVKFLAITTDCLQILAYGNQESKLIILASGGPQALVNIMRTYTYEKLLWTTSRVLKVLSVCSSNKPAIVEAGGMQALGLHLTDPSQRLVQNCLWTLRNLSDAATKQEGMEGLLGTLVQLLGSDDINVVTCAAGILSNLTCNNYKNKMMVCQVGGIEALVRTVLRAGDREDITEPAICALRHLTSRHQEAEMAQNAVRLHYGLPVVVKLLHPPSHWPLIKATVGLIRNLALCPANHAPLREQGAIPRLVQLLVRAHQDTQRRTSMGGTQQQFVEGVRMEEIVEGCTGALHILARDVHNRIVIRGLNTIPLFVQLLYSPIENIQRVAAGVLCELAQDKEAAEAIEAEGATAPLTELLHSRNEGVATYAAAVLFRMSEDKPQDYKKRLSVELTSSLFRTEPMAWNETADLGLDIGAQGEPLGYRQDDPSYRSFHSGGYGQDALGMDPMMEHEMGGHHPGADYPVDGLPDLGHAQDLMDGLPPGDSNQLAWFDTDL
Description: (§1) Equal volume of the titrated peptide was added to the plate and incubated for 15 minutes at 20° C. Then 4 uL of donor and 4 uL acceptor beads at 10 ug/mL were added to the plate, for a 16 uL reaction pool and protected from light for 60 minutes at 20° C. prior to read. Reads were performed on a CLARIOstar plate reader (BMG Labtech) in duplicate, and data were fitted to a 1:1 binding model with hill slope using an in-house script. All provided concentrations are final concentrations.

EC50 [µM]	Binder
4.06	Ac-[Aib]DA[R8]DEAAFV[PyrS]FWQ-NH2 (staple 4-11; also: earlier-eluting staple isomer, stapled peptide) [I-157]
3.3	B1
1.41	B2
≥ 10	B3
≥ 10	B4
7.37	Ac-[αAllylPro]DA[B5(4)]DEAAFV[S8]F[6F1NapA]Q-NH2 (staple 1-4, 4-11, stapled peptide composition) [I-142]
≥ 10	Ac-[αAllylPro]DA[B5]DEAAFV[S8]F[Bip]Q-NH2 (staple 1-4, 4-11, stapled peptide composition) [I-145]
1.22	Ac-[αAllylPro]DA[B5(4)]DEAAFV[S8]F[Trp(5-F)]Q-NH2 (staple 1-4, 4-11, stapled peptide composition) [I-146]
1.79	B5
1.94	B6
5.5	Ac-DI[RdN]DDAAFQ[S7]FW-NH2 (staple 3-10, stapled peptide composition) [I-151]
4.18	Ac-ADA[RdN]DEAAFQ[S7]FWH-NH2 (staple 4-11, stapled peptide composition) [I-156]
2.17	Ac-[Aib]DA[R8]DEAAFV[PyrS(3)]FWQ-NH2 (staple 4-11; also: later-eluting staple isomer, stapled peptide) [I-158]
5.35	B7
3.24	B8
≥ 10	B9
≥ 10	B10
9.75	B11
3.61	Ac-FDA[R8]DDAAFS[PyrS]FWQ-NH2 (staple 4-11, stapled peptide) [I-164]
1.23	Ac-[αAllylPro]DA[B5(16)]DEAAFV[S8]F[Trp(5-OMe)]Q-NH2 (staple 1-4, 4-11, stapled peptide composition) [I-165]
6.2	Ac-[αAllylPro]DA[B5(16)]DEAAFV[S8]F[H2Trp]Q-NH2 (staple 1-4, 4-11, stapled peptide) [I-167]
5.64	Ac-[αAllylPro]DA[B5(16)]DEAAFV[S8]F[H2Trp]Q-NH2 (staple 1-4, 4-11, stapled peptide) [I-168]
9.21	Ac-[αAllylPro]DA[B5]DEAAFV[S8]F[Trp(5-CF3)]Q-NH2 (staple 1-4, 4-11, stapled peptide composition) [I-169]
4.67	Ac-[αAllylPro]DA[B5]DEAAFV[S8]F[Trp(5-cPr)]Q-NH2 (staple 1-4, 4-11, stapled peptide) [I-170]
2.07	B12

What follows are binders tested against T2, full-length beta-Catenin (Uniprot ID P35222) (Homo sapiens (Human), UniProt P35222 2-781) (assay: AlphaScreen competition: full-length beta-catenin + biotin-TCF4(10-53) probe, peptide titrated).
T2 construct: The AlphaScreen assay used a Histidine (Nickel Chelate) detection kit, so a His tag is likely, but no tag is described; also called B-Catenin; bCat
T2 sequence: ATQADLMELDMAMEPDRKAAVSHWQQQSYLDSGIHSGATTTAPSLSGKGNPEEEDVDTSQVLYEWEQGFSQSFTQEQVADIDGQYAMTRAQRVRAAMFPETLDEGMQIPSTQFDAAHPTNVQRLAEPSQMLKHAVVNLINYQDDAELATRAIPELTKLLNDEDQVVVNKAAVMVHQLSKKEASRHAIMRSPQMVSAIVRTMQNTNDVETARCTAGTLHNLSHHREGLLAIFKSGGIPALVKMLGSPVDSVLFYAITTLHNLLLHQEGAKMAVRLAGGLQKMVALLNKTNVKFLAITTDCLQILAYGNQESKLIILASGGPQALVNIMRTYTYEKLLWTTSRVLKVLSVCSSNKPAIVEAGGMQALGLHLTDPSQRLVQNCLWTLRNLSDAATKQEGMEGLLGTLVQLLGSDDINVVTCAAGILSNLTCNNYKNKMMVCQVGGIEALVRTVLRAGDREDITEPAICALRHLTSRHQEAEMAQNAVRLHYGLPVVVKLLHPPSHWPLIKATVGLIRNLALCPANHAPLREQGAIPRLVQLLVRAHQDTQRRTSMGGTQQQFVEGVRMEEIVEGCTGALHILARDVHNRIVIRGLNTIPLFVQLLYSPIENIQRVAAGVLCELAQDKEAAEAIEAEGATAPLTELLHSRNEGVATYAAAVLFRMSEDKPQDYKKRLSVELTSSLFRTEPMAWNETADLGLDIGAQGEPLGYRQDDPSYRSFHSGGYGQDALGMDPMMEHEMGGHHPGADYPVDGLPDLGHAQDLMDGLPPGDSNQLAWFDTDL
Description: as §1

EC50 [µM]	Binder
4.91	B13
2.83	B14
2.83	B15
3.69	B16
3.69	B17
